Test results published in patent publication US9215869 (UNIVERSITY OF GEORGIA RESEARCH FOUNDATION, dated 2015).

How the values were obtained:
[1] = biological target: Cry11Ba toxin, trypsin-activated (Bacillus thuringiensis jegathesan) (Bacillus thuringiensis jegathesan) (UniProt Q45730); test: 125I-Cry11Ba binding to An. gambiae BBMV with 10 µM competitor peptide
[2] = biological target: Cry11Ba toxin, trypsin-activated (Bacillus thuringiensis jegathesan) (Bacillus thuringiensis jegathesan) (UniProt Q45730); test: cell-based or functional assay
[3] = biological target: brush border membrane vesicles (BBMV) of Anopheles gambiae 4th instar larvae (Anopheles gambiae); test: 125I-Cry11Ba binding to An. gambiae BBMV in the presence of 10 µM AgAPN2tb/Del3, against no peptide
[4] = biological target: brush border membrane vesicles (BBMV) of Anopheles gambiae 4th instar larvae (Anopheles gambiae); test: 125I-Cry11Ba binding to An. gambiae BBMV in the presence of 10 µM AgAPN2tb, against no peptide
[5] = biological target: brush border membrane vesicles (BBMV) of Anopheles gambiae 4th instar larvae (Anopheles gambiae); test: 125I-Cry11Ba binding to An. gambiae BBMV in the presence of 10 µM AgAPN2tb/Del1, against no peptide
[6] = biological target: brush border membrane vesicles (BBMV) of Anopheles gambiae 4th instar larvae (Anopheles gambiae); test: 2.5 nM 125I-Cry11Ba on 8 µg An. gambiae BBMV, no competitor
[7] = biological target: T1, Cry11Ba toxin, trypsin-activated (Bacillus thuringiensis jegathesan) (Bacillus thuringiensis jegathesan, UniProt Q45730 29-647, 125I-labelled (chloramine-T) in the BBMV binding assays; unlabelled when coated on microtiter plates); test: saturation ELISA, biotinylated peptide on plates coated with trypsinized Cry11Ba, one-site fit
T1 construct: also called trypsinized Cry11Ba; trypsinated Cry11Ba
T1 sequence (Q45730 29-647 limits assumed): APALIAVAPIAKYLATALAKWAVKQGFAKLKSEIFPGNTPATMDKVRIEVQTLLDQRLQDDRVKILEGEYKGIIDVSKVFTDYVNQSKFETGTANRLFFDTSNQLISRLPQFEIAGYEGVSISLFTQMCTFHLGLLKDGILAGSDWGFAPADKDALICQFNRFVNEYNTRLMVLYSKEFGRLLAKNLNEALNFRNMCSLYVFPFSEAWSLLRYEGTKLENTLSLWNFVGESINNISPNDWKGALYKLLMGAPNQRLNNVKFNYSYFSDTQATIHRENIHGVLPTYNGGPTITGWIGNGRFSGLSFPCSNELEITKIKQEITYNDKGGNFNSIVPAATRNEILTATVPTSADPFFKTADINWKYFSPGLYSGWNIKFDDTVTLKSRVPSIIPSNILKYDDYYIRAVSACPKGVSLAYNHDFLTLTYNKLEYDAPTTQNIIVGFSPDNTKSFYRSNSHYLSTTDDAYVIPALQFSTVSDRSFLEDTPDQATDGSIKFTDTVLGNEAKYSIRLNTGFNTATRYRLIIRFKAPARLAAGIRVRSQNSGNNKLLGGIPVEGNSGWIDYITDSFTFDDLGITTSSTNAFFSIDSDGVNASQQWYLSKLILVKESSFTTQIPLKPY

Cry11Ba toxin, trypsin-activated (Bacillus thuringiensis jegathesan) (from UniProt Q45730 29-647) (ligand), sequence (Q45730 29-647 limits assumed): as above
Cry11Ba toxin, trypsin-activated (Bacillus thuringiensis jegathesan) (Bacillus thuringiensis jegathesan), sequence (Q45730 29-647 limits assumed): as above

Row | Molecule | toxin bound to BBMV in presence of the competitor [1] [fmol] | larval mortality with Cry11Ba plus peptide inclusion bodies (1:100), 24 h [2] [%] | Kd [7] [nM] | also measured
1 | AgAPN2ta/Del2 (AgAPN2ta with a middle 10-kDa segment deleted) (receptor) | 20.6 | 8.8 | – | –
2 | Cry11Ba toxin, trypsin-activated (Bacillus thuringiensis jegathesan) (from UniProt Q45730 29-647) (ligand) | – | – | – | percent increase of Cry11Ba binding to BBMV [3]: 45%; percent increase of Cry11Ba binding to BBMV [4]: 24%; percent increase of Cry11Ba binding to BBMV [5]: 62%; toxin bound [6]: 27.9 fmol
3 | AgAPN2ta/Del3 (AgAPN2ta with the third 10-kDa segment deleted) (receptor) | 19.5 | 5 | – | –
4 | AgAPN2ta, 30-kDa fragment of Anopheles gambiae aminopeptidase N AgAPN2 (residues 336-590 of SEQ ID NO:2) (receptor, biotinylated when used as probe, Expressed in E. coli as inclusion bodies, solubilized in 8M urea, Ni-purified and dialyzed; An N-terminal Met from the NdeI site is implied by the primers; also called AgAPN2a; -2a; not shown: C-terminal vector-derived His tag (pET-30a(+), NdeI/XhoI; purified on Ni2+ column)) STSMQQHRIAAVISHEIAHQWFGDLVTCEWWDVTWLNEGFARYYQYYGTALVETEWDLDHQFVVEQLQGVMQMDSLRSTHPMTHPVYTQAQTSGIFDNISYNKGAVMLRMMEHYLTTETFKTALRAYIKDRAFKTTRPEDLFNALNRYDPNARSYMEPWTVQPGYPLVTVTSHDTGFTITQKRFLVNEPDHNEQTAWPLPITFATKASEFSITRPAFYTGMTFEIPMQGASDVEYFILNNQQVGYYRVNYDAILW | – | – | 16.7 | –
5 | AgAPN2tb, 28-kDa fragment of Anopheles gambiae aminopeptidase N AgAPN2 (residues 591-843 of SEQ ID NO:2) (receptor, biotinylated when used as probe, Expressed in E. coli as inclusion bodies, solubilized in 8M urea, Ni-purified and dialyzed; An N-terminal Met from the NdeI site is implied by the primers; also called AgAPN2b; biotin-AgAPN2tb; not shown: C-terminal vector-derived His tag (pET-30a(+), NdeI/XhoI; purified on Ni2+ column)) GKISKALHSEGFGGIHVLNRAQIVDDLFNLARGDVVPYGTALEILEYLKEETEYAPWLAAVNGLTTLSRRIHADDEKLFTAHILDIFSKAYDIVKFQAPTATERRIFTYMRQNVLQWACNYGHEECSKAAVAEFHRYHQNPSVKVHPDLRQVVYCEGIRKGSTEEFEFLWNQYLTTNVATEQILILQGLGCVSSSELITDMLNGIASPHVRSQDKNNAFTYVINNPYTLPHVSRYLQQNHANWAASHGSYTNV | – | – | 26.4 | –
